The Immune Epitope Database (IEDB)
Blank lines part the entries; values can stand above or below the sequence they belong to.

Key:
[1] = target: HLA-A*29:02; test: IEDB peptide-MHC binding, purified MHC/competitive/radioactivity; filed as Kd, often an IC50 or EC50 that approximates it; ≥ and ≤ were set here for values at or beyond the usual limits of such assays
[2] = target: HLA-A*24:02; test: as above
[3] = target: HLA-A*01:01; test: as above
[4] = target: HLA-A*23:01; test: as above
[5] = target: HLA-A*26:01; test: as above
[6] = target: HLA-A*30:02; test: as above
[7] = target: HLA-A*31:01; test: as above; conditions: source organism: Triticum aestivum
[8] = target: HLA-A*11:01; test: as above; conditions: source organism: Triticum aestivum
[9] = target: HLA-A*03:01; test: as above; conditions: source organism: Triticum aestivum
[10] = target: HLA-A*68:01; test: as above; conditions: source organism: Triticum aestivum
[11] = target: HLA-A*33:01; test: as above; conditions: source organism: Triticum aestivum
[12] = target: HLA-A*02:01; test: IEDB peptide-MHC binding, purified MHC/competitive/fluorescence; filed as Kd, often an IC50 or EC50 that approximates it; ≥ and ≤ were set here for values at or beyond the usual limits of such assays
[13] = target: HLA-A*02:03; test: IEDB peptide-MHC binding, purified MHC/competitive/radioactivity; filed as Kd, often an IC50 or EC50 that approximates it; ≥ and ≤ were set here for values at or beyond the usual limits of such assays; conditions: source organism: Dengue virus 4 Philippines/H241/1956
[14] = target: HLA-B*51:01; test: as above
[15] = target: HLA-B*40:01; test: as above
[16] = target: HLA-B*07:02; test: as above
[17] = target: HLA-A*01:01; test: IEDB peptide-MHC binding, purified MHC/direct/fluorescence; filed as Kd, often an IC50 or EC50 that approximates it; ≥ and ≤ were set here for values at or beyond the usual limits of such assays; conditions: source organism: SARS-CoV1
[18] = target: HLA-A*11:01; test: as above; conditions: source organism: SARS-CoV1
[19] = source organism: Mammarenavirus guanaritoense
[20] = source organism: Triticum aestivum
[21] = source organism: Dengue virus 1 Brazil/97-11/1997
[22] = source organism: Dengue virus 2 Jamaica/1409/1983
[23] = source organism: SARS coronavirus Tor2
[24] = source organism: Mammarenavirus brazilense
[25] = source organism: Mammarenavirus juninense
[26] = source organism: Dengue virus 3 Martinique/1243/1999

Sequence: CLERWMLVA
Kd [1, 19]: ≥ 78900 nM | Kd [2, 19]: ≥ 77500 nM | Kd [3, 19]: 153 nM | Kd [4, 19]: ≥ 77700 nM | Kd [5, 19]: ≥ 77900 nM | Kd [6, 19]: 14900 nM

Kd [1, 20]: 13 nM | Kd [2, 20]: ≥ 28300 nM | Kd [3, 20]: 83.5 nM | Kd [4, 20]: 11500 nM | Kd [5, 20]: 854 nM | Kd [7]: 224 nM | Kd [8]: 136 nM | Kd [6, 20]: 874 nM | Kd [9]: 152 nM | Kd [10]: 921 nM | Kd [11]: 2600 nM
Sequence: AMCNVYIPPY

Sequence: MLAESCDSV
Kd ([12]; source organism: Vaccinia virus): 1.1 nM

Sequence: DWVPTSRTTW
Kd [2, 21]: 886 nM | Kd [4, 21]: 6770 nM

Sequence: FLFFMQGKGI
Kd [13]: 3.77 nM | Kd ([14]; source organism: Dengue virus 4 Philippines/H241/1956): ≥ 45200 nM

Kd [1, 20]: 230 nM | Kd [2, 20]: ≥ 237000 nM | Kd [3, 20]: ≥ 78100 nM | Kd [4, 20]: ≥ 49400 nM | Kd [5, 20]: ≥ 77900 nM | Kd [6, 20]: 639 nM
Sequence: PYPQPQPQY

Sequence: FLADKKMTL
Kd ([12]; source organism: Vaccinia virus WR): 1.5 nM

Sequence: LALLAAFKV
Kd [14, 22]: 812 nM

Sequence: CLTEYILWV
Kd ([12]; source organism: Vaccinia virus Copenhagen): 10.7 nM

Sequence: VWTLMNVITL
Kd [1, 23]: 72.1 nM | Kd [2, 23]: 188 nM | Kd [3, 23]: 2720 nM | Kd [4, 23]: 62.2 nM | Kd [5, 23]: 1500 nM | Kd [6, 23]: 19400 nM

Sequence: ALSALLTKL
Kd ([12]; source organism: Human alphaherpesvirus 1 strain 17): 313 nM

Sequence: CYGVSATKL
Kd [1, 23]: 12200 nM | Kd [2, 23]: ≥ 34300 nM | Kd [3, 23]: ≥ 78100 nM | Kd [4, 23]: 12000 nM | Kd [5, 23]: ≥ 77900 nM | Kd [6, 23]: ≥ 81100 nM

Sequence: LEKHGAERL
Kd [15, 21]: 23.7 nM

Sequence: DPRRCMKPV
Kd [16, 22]: 139 nM

Sequence: WPLNEGIMAI
Kd [14, 21]: 186 nM

Sequence: RPRWLDARVY
Kd ([16]; source organism: Dengue virus 4 Dominica/814669/1981): 13.7 nM

Sequence: LYTVKFPNLI
Kd [1, 24]: ≥ 54700 nM | Kd [2, 24]: 605 nM | Kd [4, 24]: 538 nM

Sequence: AIFFTTSLF
Kd [1, 19]: 274 nM | Kd [2, 19]: 1210 nM | Kd [4, 19]: 246 nM

Sequence: TCDGNTFTY
Kd [1, 23]: 6.85 nM | Kd [2, 23]: ≥ 23900 nM | Kd [4, 23]: ≥ 77800 nM | Kd [5, 23]: ≥ 38600 nM | Kd [6, 23]: 107 nM | Kd [17]: 531 nM | Kd [18]: 2480 nM

Sequence: LIDLQELGKY
Kd [1, 23]: 2820 nM | Kd [2, 23]: ≥ 70300 nM | Kd [3, 23]: 116 nM | Kd [4, 23]: ≥ 70000 nM | Kd [5, 23]: 1020 nM | Kd [6, 23]: 38.9 nM

Sequence: VLFRLENHA
Kd ([12]; source organism: Vaccinia virus WR 65-16): 56.5 nM

Sequence: FYQKTGEKS
Kd [2, 25]: ≥ 58700 nM | Kd [3, 25]: ≥ 78100 nM | Kd [5, 25]: ≥ 77900 nM | Kd [6, 25]: ≥ 40800 nM

Sequence: RPTFAAGLL
Kd [16, 22]: 1.09 nM

Sequence: QFLYLYALI
Kd [1, 23]: 64.1 nM | Kd [2, 23]: 26.1 nM | Kd [3, 23]: 2320 nM | Kd [4, 23]: 0.117 nM | Kd [5, 23]: 10100 nM | Kd [6, 23]: ≥ 26700 nM

Kd [1, 20]: 4150 nM | Kd [2, 20]: ≥ 70300 nM | Kd [3, 20]: 415 nM | Kd [4, 20]: ≥ 38800 nM | Kd [5, 20]: 205 nM | Kd [6, 20]: 3660 nM
Sequence: ETLPAMCNVY

Sequence: AWPLIVTAL
Kd [1, 23]: ≥ 75000 nM | Kd [2, 23]: ≥ 77600 nM | Kd [3, 23]: ≥ 23000 nM | Kd [4, 23]: ≥ 49000 nM | Kd [5, 23]: 17700 nM | Kd [6, 23]: ≥ 37900 nM

Sequence: IPKNFAGPV
Kd [16, 22]: 6.79 nM | Kd [14, 22]: 3100 nM

Sequence: VEKVETWAL
Kd [15, 26]: 14.9 nM

Sequence: FEEVMRGKFG
Kd [15, 26]: 1340 nM

Sequence: ISMMGFKMNY
Kd [1, 23]: 33.4 nM | Kd [2, 23]: ≥ 70300 nM | Kd [3, 23]: 422 nM | Kd [4, 23]: ≥ 31000 nM | Kd [5, 23]: 5450 nM | Kd [6, 23]: 4.25 nM
